Where a chain is given by its changes, count along the chain named. Names and notes keep the numbering of the source.
B1: M185V/Q235A: destabilized RLuc double mutant M185V/Q235A for use as a reporter gene (protein)
chain: MASKVYDPEQRKRMITGPQWWARCKQMNVLDSFINYYDSEKHAENAVIFLHGNAASSYLWRHVVPHIEPVARCIIPDLIGMGKSGKSGNGSYRLLDHYKYLTAWFELLNLPKKIIFVGHDWGACLAFHYSYEHQDKIKAIVHAESVVDVIESWDEWPDIEEDIALIKSEEGEKMVLENNFFVETVLPSKIMRKLEPEEFAAYLEPFKEKGEVRRPTLSWPREIPLVKGGKPDVVAIVRNYNAYLRASDDLPKMFIESDPGFFSNAIVEGAKKFPNTEFVKVKGLHFSQEDAPDEMGKYIKSFVERVLKNEQ
modifications: Chemically synthesized Renilla Luciferase
notes: destabilized RLuc double mutant M185V/Q235A for use as a reporter gene
B2: F33R/I34M/C124A: RLuc mutant F33R/I34M/C124A (protein)
chain: B1 chain with F33R, I34M, C124A, V185M, A235Q
B3: C124A/F261L/F262L: RLuc mutant C124A/F261L/F262L (protein)
chain: B1 chain with C124A, V185M, A235Q, F261L, F262L
B4: A54P/C124A: RLuc mutant A54P/C124A (protein)
chain: B1 chain with A54P, C124A, V185M, A235Q
B5: C124A/M191L: RLuc mutant C124A/M191L (protein)
chain: B1 chain with C124A, V185M, M191L, A235Q
B6: C124A/L203R: RLuc mutant C124A/L203R (protein)
chain: B1 chain with C124A, V185M, L203R, A235Q
B7: M185V: destabilized RLuc single mutant M185V (without C124A) (protein)
chain: B1 chain with A235Q
modifications: Chemically synthesized Renilla Luciferase
B8: A54P/A55T/C124A: RLuc mutant A54P/A55T/C124A (protein)
chain: B1 chain with A54P, A55T, C124A, V185M, A235Q
B9: C124A/F199M: RLuc mutant C124A/F199M (protein)
chain: B1 chain with C124A, V185M, F199M, A235Q
B10: C124A/G229E: RLuc mutant C124A/G229E (protein)
chain: B1 chain with C124A, V185M, G229E, A235Q
B11: A54G/A55G/C124A: RLuc mutant A54G/A55G/C124A (protein)
chain: B1 chain with A54G, A55G, C124A, V185M, A235Q
B12: E44G/C124A: RLuc mutant E44G/C124A (protein)
chain: B1 chain with E44G, C124A, V185M, A235Q
B13: F116L/C124A: RLuc mutant F116L/C124A (protein)
chain: B1 chain with F116L, C124A, V185M, A235Q
B14: C124A/F180A: RLuc mutant C124A/F180A (protein)
chain: B1 chain with C124A, F180A, V185M, A235Q
B15: C124A/E195S/P196D: RLuc mutant C124A/E195S/P196D (protein)
chain: B1 chain with C124A, V185M, E195S, P196D, A235Q

Assay: Luciferase activity of purified RLuc mutants (light output integrated over 10 s, luminometer)
Assay type: biochemical
Settings: benzyl-coelenterazine; relative to native enzyme
Description: Luminometer Calibration: Light measurements were made using a Turner 20/20 and later a Turner 20/20n luminometer (Turner Designs, Sunnyvale, Calif.). The luminometers were calibrated to absolute units (photons/s) using the luminol light standard performed in dimethyl sulfoxide (DMSO). No corrections were applied for the spectral sensitivity of the luminometer, as the spectral peak of luminol chemiluminescence in DMSO (486 nm) is close to the spectral peak of Renilla Luciferase bioluminescence (482 nm).
Characterization of Renilla Luciferase Mutants: Luciferase activity was measured by adding 1 μl of sample (diluted as necessary in EB containing 1% HSA) to 100 μl room temperature 100 mM sodium phosphate buffer (pH 7), manually adding 1 μl of 0.5 μg/μl coelenterazine or analog, manually mixing, and reading for 10 s in a luminometer. The time between the addition of the luciferin and the start of measurement was approximately 4 s.

First: B1
Second: B2
The “Activity (relative to RLuc) bc” value of the first is higher: 2.7 for the first, 0.15 for the second.

First: B3
Second: B4
The “Activity (relative to RLuc) bc” value of the first is lower: 0.00 for the first, 0.04 for the second.

Compared with B5, B6 is lower in “Activity (relative to RLuc) bc” value: 0.99 for the first, 0.55 for the second.

Going from B7 to B8, the “Activity (relative to RLuc) bc” value falls from 2.6 to 0.15.

Going from B9 to B10, the “Activity (relative to RLuc) bc” value falls from 0.44 to 0.01.

Going from B11 to B12, the “Activity (relative to RLuc) bc” value rises from 0.10 to 0.78.

Going from B13 to B14, the “Activity (relative to RLuc) bc” value falls from 1.0 to 0.01.

In the case of B15, the “Activity (relative to RLuc) bc” value is reported as 0.10.

Same assay, conditions: bisdeoxycoelenterazine; relative to native enzyme

First: B1
Second: B2
The “Activity (relative to RLuc) bdc” value of the first is higher: 20 for the first, 0.20 for the second.

Compared with B3, B4 is higher in “Activity (relative to RLuc) bdc” value: 0.00 for the first, 0.06 for the second.

First: B5
Second: B6
The “Activity (relative to RLuc) bdc” value of the first is higher: 1.2 for the first, 0.43 for the second.

Going from B7 to B8, the “Activity (relative to RLuc) bdc” value falls from 20 to 0.22.

Going from B9 to B10, the “Activity (relative to RLuc) bdc” value falls from 0.46 to 0.01.

First: B11
Second: B12
The “Activity (relative to RLuc) bdc” value of the first is lower: 0.19 for the first, 0.98 for the second.

First: B13
Second: B14
The “Activity (relative to RLuc) bdc” value of the first is higher: 1.8 for the first, 0.01 for the second.

In the case of B15, the “Activity (relative to RLuc) bdc” value is reported as 0.15.

Same assay, conditions: coelenterazine-cp; relative to native enzyme

First: B1
Second: B2
The “Activity (relative to RLuc) cp” value of the first is higher: 14 for the first, 0.16 for the second.

First: B3
Second: B4
The “Activity (relative to RLuc) cp” value of the first is lower: 0.00 for the first, 0.05 for the second.

Compared with B5, B6 is lower in “Activity (relative to RLuc) cp” value: 0.97 for the first, 0.52 for the second.

First: B7
Second: B8
The “Activity (relative to RLuc) cp” value of the first is higher: 12 for the first, 0.11 for the second.

First: B9
Second: B10
The “Activity (relative to RLuc) cp” value of the first is higher: 0.53 for the first, 0.03 for the second.

Compared with B11, B12 is higher in “Activity (relative to RLuc) cp” value: 0.06 for the first, 0.74 for the second.

Compared with B13, B14 is lower in “Activity (relative to RLuc) cp” value: 1.3 for the first, 0.03 for the second.

With B15 the “Activity (relative to RLuc) cp” value was 0.12.

Same assay, conditions: coelenterazine-n; relative to native enzyme

Going from B1 to B2, the “Activity (relative to RLuc) n” value falls from 7.1 to 0.12.

Compared with B3, B4 is higher in “Activity (relative to RLuc) n” value: 0.00 for the first, 0.08 for the second.

Going from B5 to B6, the “Activity (relative to RLuc) n” value falls from 1.0 to 0.41.

First: B7
Second: B8
The “Activity (relative to RLuc) n” value of the first is higher: 4.1 for the first, 0.38 for the second.

Compared with B9, B10 is lower in “Activity (relative to RLuc) n” value: 0.49 for the first, 0.03 for the second.

Compared with B11, B12 is higher in “Activity (relative to RLuc) n” value: 0.15 for the first, 0.66 for the second.

Compared with B13, B14 is lower in “Activity (relative to RLuc) n” value: 0.88 for the first, 0.01 for the second.

With B15 the “Activity (relative to RLuc) n” value was 0.10.

Same assay, conditions: native coelenterazine

In the case of B1, the “improvement in light output (activity) compared to native RLuc” value is reported as 5 fold.

In the case of B7, the “improvement in light output (activity) compared to native RLuc” value is reported as “about 4 fold”.

Same assay, conditions: native coelenterazine; relative to native enzyme

Compared with B1, B2 is lower in “Activity (relative to RLuc) native” value: 4.8 for the first, 0.15 for the second.

Going from B3 to B4, the “Activity (relative to RLuc) native” value rises from 0.00 to 0.05.

First: B5
Second: B6
The “Activity (relative to RLuc) native” value of the first is higher: 1.1 for the first, 0.55 for the second.

Compared with B7, B8 is lower in “Activity (relative to RLuc) native” value: 4.4 for the first, 0.21 for the second.

Compared with B9, B10 is lower in “Activity (relative to RLuc) native” value: 0.58 for the first, 0.02 for the second.

First: B11
Second: B12
The “Activity (relative to RLuc) native” value of the first is lower: 0.12 for the first, 0.94 for the second.

Compared with B13, B14 is lower in “Activity (relative to RLuc) native” value: 1.3 for the first, 0.02 for the second.

For B15, the “Activity (relative to RLuc) native” value was 0.12.

Assay: Serum stability in mouse serum at 37° C.
Assay type: in vitro ADME
Settings: mouse serum, 37° C., mono-exponential fit
Experimental: (§1) Serum stability measurements were done by mixing 0.5 μl dilute Luciferase with either 20 μl mouse serum or 50 μl rat serum (Equitech-Bio, Kerrville, Tex.) placing the sample in a 37° C. incubator, and removing aliquots for activity testing. To calculate serum half-lives, mono-exponential decay curves were fit to the serum stability data using a Nelder/Mead Simplex non-linear least squares minimization algorithm provided by the Octave numerical programming language. Emission spectra at ambient temperature were measured using a Triax 320 (Horiba Jobin Yvon, Edison, N.J.), which incorporates an optical grating device with a liquid N2 cooled CCD detector.

First: B1
Second: B2
The “Serum τ1/2 (h) mouse” value of the first is 1.7-fold higher: 0.5 h for the first, 0.3 h for the second.

Compared with B4, B5 is 2.2-fold lower in “Serum τ1/2 (h) mouse” value: 14 h for the first, 6.5 h for the second.

First: B6
Second: B7
The “Serum τ1/2 (h) mouse” value of the first is 3.4-fold higher: 2.7 h for the first, 0.8 h for the second.

Going from B8 to B9, the “Serum τ1/2 (h) mouse” value falls from 119 h to 6.7 h (18-fold).

B10 and B11 are within 1.5-fold of each other in “Serum τ1/2 (h) mouse” value: 1.9 h for the first, 2.4 h for the second.

First: B12
Second: B13
The “Serum τ1/2 (h) mouse” value of the first is 4.2-fold lower: 2.6 h for the first, 11 h for the second.

Compared with B14, B15 is 1.6-fold lower in “Serum τ1/2 (h) mouse” value: 1.6 h for the first, 1.0 h for the second.

Same assay, conditions: murine serum

In the case of B1, the “stability (lability) compared to the native enzyme” value is reported as “half the stability”.

Same assay, conditions: murine serum; listed as double mutant

With B1 the “stability (lability) compared to the native enzyme” value was “twice the lability”.

Assay: Serum stability in rat serum at 37° C.
Assay type: in vitro ADME
Settings: mono-exponential fit
Experimental: as §1

B1 and B2 are within 1.5-fold of each other in “Serum τ1/2 (h) rat” value: 0.2 h for the first, 0.3 h for the second.

Compared with B4, B5 is 2.5-fold lower in “Serum τ1/2 (h) rat” value: 13 h for the first, 5.1 h for the second.

Compared with B6, B7 is 7.3-fold lower in “Serum τ1/2 (h) rat” value: 2.2 h for the first, 0.3 h for the second.

Going from B8 to B9, the “Serum τ1/2 (h) rat” value falls from 129 h to 6.0 h (22-fold).

First: B10
Second: B11
The “Serum τ1/2 (h) rat” value of the first is 1.7-fold lower: 1.8 h for the first, 3.0 h for the second.

Going from B12 to B13, the “Serum τ1/2 (h) rat” value rises from 3.3 h to 9.4 h (2.8-fold).

Going from B14 to B15, the “Serum τ1/2 (h) rat” value falls from 1.6 h to 0.7 h (2.3-fold).

Assay: Bioluminescence emission spectra
Assay type: physicochemical
Settings: emission spectrum with native coelenterazine
Experimental: as §1

Compared with B2, B4 is lower in “Wavelength (nm) mean” value: 497 nm for the first, 482 nm for the second.

Going from B5 to B6, the “Wavelength (nm) mean” value rises from 496 nm to 501 nm.

Going from B8 to B9, the “Wavelength (nm) mean” value rises from 483 nm to 495 nm.

Compared with B10, B11 is higher in “Wavelength (nm) mean” value: 490 nm for the first, 492 nm for the second.

B12 and B13 are the same in “Wavelength (nm) mean” value: 502 nm for the first, 502 nm for the second.

Going from B14 to B15, the “Wavelength (nm) mean” value falls from 504 nm to 498 nm.

Compared with B2, B4 is lower in “Wavelength (nm) peak” value: 481 nm for the first, 468 nm for the second.

Going from B5 to B6, the “Wavelength (nm) peak” value rises from 480 nm to 484 nm.

Going from B8 to B9, the “Wavelength (nm) peak” value rises from 470 nm to 480 nm.

First: B10
Second: B11
The “Wavelength (nm) peak” value of the first is lower: 473 nm for the first, 476 nm for the second.

B12 and B13 are the same in “Wavelength (nm) peak” value: 486 nm for the first, 486 nm for the second.

First: B14
Second: B15
The “Wavelength (nm) peak” value of the first is higher: 488 nm for the first, 482 nm for the second.

— US7842469B2, “Bioluminescence resonance energy transfer (BRET) systems and methods of use thereof” (Stanford University, priority 2005, dated 2010)
